Assay results from paper PMC8654305.

Target: recombinant C-terminal StrepII-tagged ScSbtB (SbtB from Synechocystis sp. PCC 6803) (Synechocystis sp. PCC 6803), P73954
Test: crystal structure
Conditions: remark: other sources report otherwise

B1: recombinant C-terminal StrepII-tagged ScSbtB (SbtB from Synechocystis sp. PCC 6803), P73954 1-110 (natural protein)
chain: MAKPANKLVIVTEKILLKKIAKIIDESGAKGYTVMNTGGKGSRNVRSSGQPNTSDIEANIKFEILTETREMAEEIADRVAVKYFNDYAGIIYICSAEVLYGHTFCGPEGC
B1 gave a stoichiometry N of 3.
